Data from the RNAGym collection of RNA variant scans (doi:10.7554/elife.80360).

B1: HDV Ribozyme (parent)
chain: GGCCGGCAUGGUCCCAGCCUCCUCGCUGGCGCCGGCUGGGCAACAUUCCGAGGGGACCGUCCCCUCGGUAAUGGCGAAUGGGACCCA

Variants of: B1
Test: self-cleavage, relative activity (ratio to wild type); higher = more cleavage; co-transcriptional

| Variant | self-cleavage |
| --- | --- |
| G82A | 0.418 |
| G82C | 0.259 |
| G82U | 0.41 |
| G80U C85A | 0.288 |
| G82U C86G | 0.39 |
| A83C C84G | 0.231 |
| A83C C84A | 0.78 |
| G81U A83G | 0.152 |
| A83C A87C | 0.499 |
| A83G C85U | 0.9 |
| C86A A87U | 0.9 |
| C84G C85A | 0.928 |
| C84G C85U | 0.719 |
| G80U G81A | 0.277 |
| G80U G81U | 0.191 |
| A83C C86A | 0.554 |
| C85U C86A | 0.923 |
| C85U C86G | 0.946 |
| G81A A87U | 0.565 |
| G81A A83C | 0.165 |
| G81A A83U | 0.187 |
| G81U C84A | 0.378 |

| Variant | self-cleavage |
| --- | --- |
| C84A C85U | 0.639 |
| C84A C85A | 0.571 |
| G81C G82C | 0.106 |
| C84U C86A | 0.767 |
| G82A C85U | 0.495 |
| G82A C85A | 0.253 |
| C85G | 0.948 |
| C85A | 0.932 |
| C85U | 0.978 |
| G81A C84U | 0.327 |
| C84G C86G | 0.522 |
| A83G A87U | 0.861 |
| A83G A87G | 0.733 |
| G80C G81A | 0.089 |
| C85G C86A | 0.763 |
| C84A A87U | 1.02 |
| A83U C84U | 0.87 |
| C85G A87C | 0.849 |
| G82C C84U | 0.166 |
| C84G A87C | 0.409 |
| C84G A87G | 0.282 |
| G80C A87U | 0.177 |

| Variant | self-cleavage |
| --- | --- |
| C85A C86A | 0.924 |
| G80U C84A | 0.652 |
| G81A C85A | 0.35 |
| C86U A87U | 0.835 |
| G80U A87G | 0.272 |
| G80U A87C | 0.192 |
| G82U A87U | 0.462 |
| G81C C84A | 0.26 |
| C84A C86G | 0.755 |
| C86A | 0.926 |
| C86G | 0.983 |
| C86U | 0.935 |
| A83U C86U | 0.95 |
| G82C C86U | 0.285 |
| C86G A87U | 0.965 |
| C86G A87G | 0.905 |
| G80U C86G | 0.243 |
| G82U A83U | 0.289 |
| G82U A83G | 0.137 |
| G80U G82C | 0.332 |
| G80C C84A | 0.144 |
| C85U A87U | 0.956 |
